# Where a chain is given by its changes, count along the chain named.
# T1: pol30-79 (yeast), P15873
# T1 chain: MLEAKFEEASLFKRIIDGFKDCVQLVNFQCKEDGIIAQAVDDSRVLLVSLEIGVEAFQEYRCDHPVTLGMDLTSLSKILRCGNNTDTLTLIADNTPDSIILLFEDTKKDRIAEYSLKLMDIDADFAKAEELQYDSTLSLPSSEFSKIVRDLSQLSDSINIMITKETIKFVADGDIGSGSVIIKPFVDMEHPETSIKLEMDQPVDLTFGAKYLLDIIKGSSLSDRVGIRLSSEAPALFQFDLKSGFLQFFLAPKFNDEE
# T2: pol30-Rad30E2 of the mutant strain (yeast, UniProt P15873 1-258, IDCL DIDADFLKIEEL to DDDWDFLKILEL)
# T2 construct: PCNA (POL30), yeast; source: yeast, sole source of PCNA under the native POL30 promoter, in crude cell extract
# T2 sequence: T1 chain with I121D, A123W, A126L, A128I, E129L
# B1: pol30-Rad27L2: PCNA mutant evolved for Rad27, two-residue deletion, IDCL sequence D––VDTLKITEL (protein)
# chain: MLEAKFEEASLFKRIIDGFKDCVQLVNFQCKEDGIIAQAVDDSRVLLVSLEIGVEAFQEYRCDHPVTLGMDLTSLSKILRCGNNTDTLTLIADNTPDSIILLFEDTKKDRIAEYSLKLMDVDTLKITELQYDSTLSLPSSEFSKIVRDLSQLSDSINIMITKETIKFVADGDIGSGSVIIKPFVDMEHPETSIKLEMDQPVDLTFGAKYLLDIIKGSSLSDRVGIRLSSEAPALFQFDLKSGFLQFFLAPKFNDEE
# modifications: left off: Gal4 activation domain, end not stated, kept
# B2: Rad30, Q04049 1-632 (natural protein)
# chain: MSKFTWKELIQLGSPSKAYESSLACIAHIDMNAFFAQVEQMRCGLSKEDPVVCVQWNSIIAVSYAARKYGISRMDTIQEALKKCSNLIPIHTAVFKKGEDFWQYHDGCGSWVQDPAKQISVEDHKVSLEPYRRESRKALKIFKSACDLVERASIDEVFLDLGRICFNMLMFDNEYELTGDLKLKDALSNIREAFIGGNYDINSHLPLIPEKIKSLKFEGDVFNPEGRDLITDWDDVILALGSQVCKGIRDSIKDILGYTTSCGLSSTKNVCKLASNYKKPDAQTIVKNDCLLDFLDCGKFEITSFWTLGGVLGKELIDVLDLPHENSIKHIRETWPDNAGQLKEFLDAKVKQSDYDRSTSNIDPLKTADLAEKLFKLSRGRYGLPLSSRPVVKSMMSNKNLRGKSCNSIVDCISWLEVFCAELTSRIQDLEQEYNKIVIPRTVSISLKTKSYEVYRKSGPVAYKGINFQSHELLKVGIKFVTDLDIKGKNKSYYPLTKLSMTITNFDIIDLQKTVVDMFGNQVHTFKSSAGKEDEEKTTSSKADEKTPKLECCKYQVTFTDQKALQEHADYHLALKLSEGLNGAEESSKNLSFGEKRLLFSRKRPNSQHTATPQKKQVTSSKNILSFFTRKK
# B3: GFP-tagged Rad30 (natural protein, yeast, UniProt Q04049 1-632, looked up)
# chain: B2 chain
# notes: Rad30, yeast, tagged at its natural locus; source: yeast, GFP-tagged at the natural locus, in crude cell extract; not shown: GFP, C-terminal, kept
# Columns and labels:
# Msh6 = assay: Yeast two hybrid (Y2H) analysis of PCNA-partner interaction; assay type: binding; conditions: YRG2 strain, growth on selective agar plates lacking histidine; growth similar to WT PCNA denoted as 1
# Procedure: (§1) For the Y2H assay, we used the YRG2 host strain, shown to be highly efficient in coupling the strength of protein-protein interactions with growth on media lacking histidine. Selected PCNA mutants were characterized for their ability to bind each of 12 main PCNA partners to obtain specificity profiles (Table 1, Table S1, and Figures S4–S5). […] However, in some cases a strong trade-off between the bindings of different partners was observed.
# (§2) Y2H analysis was performed using the Yeast Two Hybrid Phagemid vector kit (Stratagene), following the manufacturer's instructions. The pAD-PCNA-WT/mutant plasmids were used as bait while plasmids encoding 12 different PCNA partners (Table 1 and Table S1) were used as prey. The YRG2 host strain (Stratagene) was cotransformed with pAD-PCNA WT/mutant and pBD-partner plasmids in all possible combinations using the LiAC method. Single transformants were grown in liquid SC-Leu-Trp to O.D600 10, washed twice with DDW, and diluted to an initial OD600 of 0.3. A series of 10-fold serial dilutions was then spotted onto selective SC-Leu-Trp-His plates and incubated at 30°C for 3 d. For quantitative Y2H, the generation time of the indicated mutants and their respective partners were calculated from their growth curves in liquid SC-Leu-Trp-His media. Cells were grown overnight in SC-Leu-Trp, washed twice with ddH2O, and diluted by a factor of 1∶50 into 10 ml of pre-warmed SC-Leu-Trp-His. O.D600 measurements of the cultures were taken at the indicated time; the generation time (τ) was calculated from the growth curves according to the equation ODt = OD0×2^t/τ. The generation time calculated for each culture is an average of at least 3 independent experiments.
# Pol32 = assay: as above; assay type: binding; conditions: YRG2 strain, growth on selective agar plates lacking histidine; growth similar to WT PCNA denoted as 1
# Procedure: as §1, §2
# Rad27 = assay: as above; assay type: binding; conditions: footnote c: generation time in liquid selective media lacking histidine relative to cells expressing WT PCNA; average of at least 3 independent experiments
# Procedure: as §1, §2
# Ung1 = assay: as above; assay type: binding; conditions: YRG2 strain, growth on selective agar plates lacking histidine; growth similar to WT PCNA denoted as 1
# Procedure: as §1, §2
# Apn2 = assay: as above; assay type: binding; parameters: key: ++: major increase in growth; +: moderate increase in growth; similar growth as the WT PCNA-expressing cells; -: minor decrease in growth; --: moderate decrease in growth; ---: major decrease in growth; conditions: spotting onto selective agar plates; PCNA fused to AD, partner to BD
# Procedure: as §2
# (§3) Table S1: Yeast two hybrid analysis of binding of selected PCNA mutants with seven additional partners not described in Table 1 of the main text. […]
# (§4) pol30-Rad30E2 WT WT WT WT WT WT - pol30-Rad30E9 WT WT WT WT WT WT WT pol30-Rad27E6 WT WT WT WT + WT WT pol30-Rad27E31 WT WT WT WT + WT WT pol30-Rad27L1 WT -- WT WT -- WT WT pol30-Rad27L2 WT -- WT WT -- WT WT pol30-Pol32E5 WT WT WT WT WT WT WT pol30-Pol32E9 - WT WT WT WT WT WT pol30-Msh6E2 WT WT + WT WT WT WT pol30-Msh6E6 WT WT ++ WT WT WT WT pol30-Ung1E3 WT - WT WT WT WT WT pol30-79 --- --- --- - --- --- --- a PCNA mutants with enhanced affinities for the different target partners (see Table 1, text). b PCNA mutants were fused to the activating domain (AD), while the different partners were fused to the DNA-binding domain (BD). The growth of the resulting Y2H strains was compared to the growth of the WT PCNA-expressing strain following spotting onto selective agar plates (see Material and Methods). Growth rates on the agar plates were scored and tabulated as follows: ++ major increase in growth; + moderate increase in growth; WT-similar growth as the WT PCNA-expressing cells; - minor decrease in growth; -- moderate decrease in growth; --- major decrease in growth. ND-Not determined.
# Cac1 = assay: as above; assay type: binding; parameters: key: ++: major increase in growth; +: moderate increase in growth; similar growth as the WT PCNA-expressing cells; -: minor decrease in growth; --: moderate decrease in growth; ---: major decrease in growth; conditions: spotting onto selective agar plates; PCNA fused to AD, partner to BD
# Procedure: as §2, §3, §4
# Cdc9 = assay: as above; assay type: binding; parameters: key: ++: major increase in growth; +: moderate increase in growth; similar growth as the WT PCNA-expressing cells; -: minor decrease in growth; --: moderate decrease in growth; ---: major decrease in growth; conditions: spotting onto selective agar plates; PCNA fused to AD, partner to BD
# Procedure: as §2, §3, §4
# Eco1 = assay: as above; assay type: binding; parameters: key: ++: major increase in growth; +: moderate increase in growth; similar growth as the WT PCNA-expressing cells; -: minor decrease in growth; --: moderate decrease in growth; ---: major decrease in growth; conditions: spotting onto selective agar plates; PCNA fused to AD, partner to BD
# Procedure: as §2, §3, §4
# Msh3 = assay: as above; assay type: binding; parameters: key: ++: major increase in growth; +: moderate increase in growth; similar growth as the WT PCNA-expressing cells; -: minor decrease in growth; --: moderate decrease in growth; ---: major decrease in growth; conditions: spotting onto selective agar plates; PCNA fused to AD, partner to BD
# Procedure: as §2, §3, §4
# Rfc1 = assay: as above; assay type: binding; parameters: key: ++: major increase in growth; +: moderate increase in growth; similar growth as the WT PCNA-expressing cells; -: minor decrease in growth; --: moderate decrease in growth; ---: major decrease in growth; conditions: spotting onto selective agar plates; PCNA fused to AD, partner to BD
# Procedure: as §2, §3, §4
# Rrm3 = assay: as above; assay type: binding; parameters: key: ++: major increase in growth; +: moderate increase in growth; similar growth as the WT PCNA-expressing cells; -: minor decrease in growth; --: moderate decrease in growth; ---: major decrease in growth; conditions: spotting onto selective agar plates; PCNA fused to AD, partner to BD
# Procedure: as §2, §3, §4
# yeast strains = assay: Viability of haploid strains with mutant as sole source of PCNA (plasmid shuffling, 5FOA); assay type: cell-based
# From the text: To study the in vivo ability of PCNA mutants to promote DNA replication and repair in yeast, we adopted a plasmid shuffling method to create haploid yeast strains carrying each mutant as the sole source of PCNA (see Materials and Methods). This approach allowed us to identify PCNA mutants leading to cell death, indicating their inability to support essential DNA replication processes (Figure 5A). […] To verify that the replication defects in the mutant strains (Figure 5) are not due to reduced expression levels of the PCNA proteins, we confirmed the expression level of PCNA using western blot analysis and observed similar expression levels of all PCNA mutants, relative to WT PCNA (Figure S7).
# Figure 5 In vivo phenotypic analysis of PCNA mutants. (A) Non-viable strains containing PCNA mutants with increased binding affinity for Rad27 as the sole version of PCNA. Yeast strains containing WT PCNA expressed from a URA3 plasmid and mutant PCNA genes expressed from a LEU2 plasmid are viable (middle). Upon selection for loss of WT PCNA using 5-floororotic acid (5FOA), PCNA mutant strains are non-viable (right). (B) MMS (middle) and HU (right) sensitivity of strains containing PCNA mutants with increased binding affinity for Rad27, Pol32, Rad30, Msh6, and Ung1 and strains containing WT PCNA in which the same partners were deleted. For binding characterization and sequences of the mutants, see Table 1.
# Novel haploids containing PCNA mutants were generated using the plasmid shuffling method. Briefly, a pol30::KanMX magic marker heterozygote diploid strain BY4743 (Open Biosystem) was transformed with plasmid pRS316-POL30. Following dissection of the diploid, a haploid containing the CAN+ gene and plasmid pRS316-POL30 as a sole source of PCNA was generated. This host strain was transformed with selected pRS315-pol30 mutants, plated on SC-Ura-Leu plates, followed by replica plating to SC-Leu+5FOA plates. Haploids, containing PCNA mutants as a sole source, were further verified by plating on either SC-Leu or SC-Ura plates. For testing selected PCNA mutants, a haploid containing rad27::HYG, rad30::HYG, pol32::HYG, msh6::HYG, or ung1::HYG were generated using plasmid pAG32 by conventional genetic approaches. Growth of the PCNA mutant strains in the presence of 120 mM HU (Toronto Research Chemicals) or 0.02% MMS (Sigma) was performed as described. To examine the effects of partner overexpression on pol30 mutant strains, these strains were transformed with various plasmids containing GST-tagged PCNA partner encoding genes under the control of a GAL1/10 inducible promoter, as previously described. Overnight cultures were plated in serial dilutions on SC-Ura containing either glucose or galactose with or without DNA-damaging agents, as described above.
# pol30-79 (yeast), P15873 = target: T1, pol30-79 (yeast), P15873; assay: two-hybrid; quantitative Y2H: generation time of the YRG2 strains in liquid SC-Leu-Trp-His, given relative to cells expressing WT PCNA; average of at least 3 experiments; conditions: remark: other sources report otherwise
# [1] = target: T2, pol30-Rad30E2 of the mutant strain; assay: ELISA; PCNA captured from crude yeast extract (3 mg/ml) on plates coated with anti-PCNA antibody; bound GFP-tagged partner detected by anti-GFP, normalised to the anti-His signal of PCNA; conditions: partners not purified
molecule,measurement,setting,value
B1,Binding of PCNA Mutants to Target Partners: Msh6 (Y2H),Msh6,1
same,Binding of PCNA Mutants to Target Partners: Pol32 (Y2H),Pol32,1
same,"Binding of PCNA Mutants to Target Partners: Rad27, fold increase or decrease (quantitative Y2H)",Rad27,1.5 ^c fold
same,Binding of PCNA Mutants to Target Partners: Ung1 (Y2H),Ung1,1
same,Y2H growth relative to WT PCNA-expressing strain: Apn2,Apn2,WT
same,Y2H growth relative to WT PCNA-expressing strain: Cac1,Cac1,--
same,Y2H growth relative to WT PCNA-expressing strain: Cdc9,Cdc9,WT
same,Y2H growth relative to WT PCNA-expressing strain: Eco1,Eco1,--
same,Y2H growth relative to WT PCNA-expressing strain: Msh3,Msh3,WT
same,Y2H growth relative to WT PCNA-expressing strain: Rfc1,Rfc1,WT
same,Y2H growth relative to WT PCNA-expressing strain: Rrm3,Rrm3,WT
same,viability of strain containing the mutant as the sole source of PCNA,"yeast strains; plasmid shuffling, selection on 5FOA",lethality
same,effect of rad27 deletion on lethality of the mutant strain,"yeast strains; rad27-deleted background, 5-FOA",suppressed the lethality
B2,fold change in affinity relative to WT PCNA (Y2H generation time),"pol30-79 (yeast), P15873",0.4 fold
B3,increase in the amount of complex relative to the POL30 strain,[1],70%

# Source: paper PMC2953525, “Subtle Alterations in PCNA-Partner Interactions Severely Impair DNA Replication and Repair” (PLoS Biology, 2010)
